Experimental data reported in patent publication US20110268745A1 (Novo Nordisk, published 2011).

Biological target: T1, human tissue factor pathway inhibitor (TFPI) (human, UniProt P10646 29-304, biotinylated in the ELISA (site not stated))
T1 construct: Full length TFPI and a short version, TFPIB161B (first two Kunitz domains), were both used for immunisation and ELISA; also called TFPI1; human TFPI1
T1 sequence: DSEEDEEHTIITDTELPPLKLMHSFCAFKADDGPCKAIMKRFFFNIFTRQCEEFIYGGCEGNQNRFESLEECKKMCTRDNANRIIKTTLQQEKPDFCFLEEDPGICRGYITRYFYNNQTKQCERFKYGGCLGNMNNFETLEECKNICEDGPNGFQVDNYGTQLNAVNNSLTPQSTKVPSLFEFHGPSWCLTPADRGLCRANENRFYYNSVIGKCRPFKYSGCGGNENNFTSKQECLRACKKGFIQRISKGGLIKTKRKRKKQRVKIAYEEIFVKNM
Assay: hybridoma screening; ELISA with antibody captured on anti-mouse IgG and soluble biotinylated human TFPI or TFPIB161B, as described in the methods
Method: Immunoplates were coated with anti-mouse IgG. Culture supernatants from the hybridoma cells were added to the plates and, after washing, soluble biotinylated human TFPI or TFPIB161B was added to test for specific binding.

B1: TFPI-3F18A4B1 (antibody, IgG1, V domains shown)
VH: EVKLVESGGGLVKPGGSLRLSCAASGFTFSNYALSWVRQTPDKRLEWVASISSGGATYYPDSVEGRFTISRDNVRNILYLQMSSLQSEDTAMYYCTRGAYGSDYFDYWGQGTTLTVSS
VL: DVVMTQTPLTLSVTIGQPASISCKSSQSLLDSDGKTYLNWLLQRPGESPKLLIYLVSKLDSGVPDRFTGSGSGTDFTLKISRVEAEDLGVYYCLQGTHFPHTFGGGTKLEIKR
notes: also called TFPI-3F18A2; anti-TFPI antibody 3F18
  binding result: binds
